This note sets out measurements from the nanobody polyreactivity screen of Harvey et al. (2022).

This series in a line: yeast display, Sf9 membrane polyspecificity reagent, FACS + sequencing; frameworks hold sequencing errors. Put shortly: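 Nanobodies came from a synthetic yeast display library in Saccharomyces cerevisiae BJ5465, induced with galactose for 36–48 hours and stained for 1 hour at 4 °C with 10% biotinylated, detergent-solubilized Sf9 membrane reagent. Cells were enriched on streptavidin microbeads and then FACS-sorted, with low and high (top ~1%) gates set on anti-HA fluorescence for expression and streptavidin fluorescence for reagent binding. Each polyreactivity label reflects the gate a clone came from. Genes were amplified by colony PCR, sequenced by MiSeq 2 × 250 and filtered by CDR length.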
With “QVQLVESGGGLVQAGGSLRLSCAASGFTITDYAMGWYRQAPGKVRELVAAITWSGGSTYYADSVKGRFTLSRDNAKNTVYLQMNSLKPEDTAVYYCNKVTEGLKMDYWGQGTQVTVSS”, the “polyreactivity (PSR sort gate)” value is “low polyreactivity”.
In the case of “QVQLVESGGGLVQAGGSLRLSCAASGFTIWSYAMGWYRQAPGKERELVAAINYRGTSTYYADSVKGRFTISRDNAKNTVYLQMHSLKPEDTAVYYCAARYYTWQRPTYDYWGQGTQVTVSS”, the “polyreactivity (PSR sort gate)” value was “high polyreactivity”.
With “QVQLVESGGGLVQAGGSLRLSCAASGFTIYKNAMAWYRQAPGKERELVAAISGRGGSTTYADSVKGRFTISRDNAKNTVYLQMNSLKPEDTAVYYCAARFTYSYPLFGSWGQGTQVTVSS” the entry was “high polyreactivity”; with “QVQLVESGGGLVQAGGSLRLSCAASGFTIYRYALGGYRPAPGKERELVAAISKSGVSTYYADSVKGRFTISRDNAKNTVYLLMNSLKPEDTAVYYCAVSLTYRWISFDYWGQGTQVTVSS”, “high polyreactivity”.
Turning to “QVQLVESGGGLVQAGGSLRLSCAASGFTIYWYTMVWYRQAPGKERELVAAISRRGGRTYYADSVKGRFTISRDNAKNTVYLQMNSLKPEDTAVYYCAADGTSPVDMNYWGQGTQVTVSS”, the “polyreactivity (PSR sort gate)” value is given as “high polyreactivity”.
The entry for “QVQLVESGGGLVQAGGSLRLSCAASGFTIYYYAMGWYRQAPGKERELVASISWSGGSTNYADSVKGRFTISRDNAKNTVYLQMNRLKPEDTAVYYCNTAGPYRRDYWGQGTQVTVSS” is “high polyreactivity”; for “QVQLVESGGGLVQAGGSLRLSCAASGFTLADNTMGWYRQAPGKEMELVAAITSGASTYYADSVKGRFTISRDNAKNTVYLQMNSLKPEDTAVYYCAALYYWLSGYDYWGQGTQVTVSS” it is “low polyreactivity”.
With “QVQLVESGGGLVQAGGSLRLSCAASGFTLAYYAMGWYRQAPGKERELVAAITADTGTTYYADSVKGRFTISRDNAKNTVYLQMNSLKPEDTAVYYCATRDVFYEDDYWGQGTQVTVSS” the entry was “high polyreactivity”; with “QVQLVESGGGLVQAGGSLRLSCAASGFTLAYYAMGWYRQAPGKERELVATISRRGGSTNYADSVKGRFTISRDNAKNTVYLQMNSLKPVDTAVYYCARTLYRGKSYHGHSKYDYWGQGTQVTVSS”, “high polyreactivity”.
On to “QVQLVESGGGLVQAGGSLRLSCAASGFTLDDNGMGWYRQAPGKERELVASITWSGGSTYYADSVKGRFTISRDNAKNTVYLQMNSLKPEDTAVYYCNVGDPIGGFLSYWGGDYWGQGTQVTVSS”, for which the “polyreactivity (PSR sort gate)” value is recorded as “low polyreactivity”.
For “QVQLVESGGGLVQAGGSLRLSCAASGFTLDVNAMGLYRHAPGKERELVATISWGGASRYYADSVKGRFTISRDNAKNTVYLQMNRLKPEDTAVFYCAAQFYYPDDKGGYDYWGQGTQVTVSS”, the “polyreactivity (PSR sort gate)” value is given as “low polyreactivity”.
The entry for “QVQLVESGGGLVQAGGSLRLSCAASGFTLDWYAKGWYRQAPGKERELVAAISSSGRTNYADSVKGRFTISRDNAKNTVYLQMNSLKPEDTAVYYCNRDYPYIWHKGARYWHENDYWGQGTQVTVTS” is “low polyreactivity”; for “QVQLVESGGGLVQAGGSLRLSCAASGFTLDWYAMGWYRQAPGKERELVAAIWSAGTTYYADSVKGRFTISRDNAKNTVYLQMNSLKPEDTAVYYCATVSDYDFGLYDYWGQGTQVTVSS” it is “low polyreactivity”.
With “QVQLVESGGGLVQAGGSLRLSCAASGFTLEDYTMGWYRQAPGKERELVARITSGGSTNYADSVKGRFTISRDNAKNTVYLQMNSLKPEDTAVYYCNARYAWINMDYWGQGTQVTVSS” the entry was “low polyreactivity”; with “QVQLVESGGGLVQAGGSLRLSCAASGFTLEFSAMGWYRQAPGKERELVASISSGGRTNYADSVKGRFTISRDNAKNTVYLQMYSLKPVDTAVYYCAAEYRSWGRYRYRFNYWGQGTQVTVSS”, “high polyreactivity”.
With “QVQLVESGGGLVQAGGSLRLSCAASGFTLFGYAMGWYRQAPGKERELVAAITSGDGRTYYADSVKGRFTISRDNAKNTVYLQMNSLKPEDTAVYYCAATRYSSYYYVRHDHWGQGTQVTVSS” the entry was “low polyreactivity”; with “QVQLVESGGGLVQAGGSLRLSCAASGFTLGDNAMGWSRQAPGKERELVAAISGGGSSTYYADSVKGRFTISRDNAKNTVYLQMNSLKPEDTAVYYCAADYYFSTYYSRYYFWGQGTQVTVSS”, “low polyreactivity”; with “QVQLVESGGGLVQAGGSLRLSCAASGFTLGFYAMGWYRQAPGKESELVAAINWRGGSTYYADSVKGRFTISRDNAKNTVYLQMNSLKPEDTAVYYCNARWARGRYAQYVGLDREYDYWGQGTQVTVSS”, “high polyreactivity”.
Take “QVQLVESGGGLVQAGGSLRLSCAASGFTLGRYAMGWYRQAPGKEREFVAAISSSGTTTNYADSVKGRFTISRDNAKNTVYLQMNSLKPEDTAVYFCNAYTTKRRWIKYDYWGQGTQVTVSS”: the “polyreactivity (PSR sort gate)” value is “high polyreactivity”.
The entry for “QVQLVESGGGLVQAGGSLRLSCAASGFTLGSNVMGWYRQAPGKERELVAGISQSGGRTFYADSVKGRFTISRDNAKNTVYLQMNSLKPEDTAVYYCNAYRYYSPYGYWGQGTQVTVSS” is “low polyreactivity”; for “QVQLVESGGGLVQAGGSLRLSCAASGFTLKYYAMGWYRQAPGKERELVAAITQRGGSTYADSVKGRFTISRDNAKNTVYLQMNSLKPEDTAFYFCAASSAKYRLYGGYDYWGQGTQVTVSS” it is “high polyreactivity”.
With “QVQLVESGGGLVQAGGSLRLSCAASGFTLLKYAMGWYIQAPGKERELVAAITRRGGRTSYADSVKGRFTISRDNAKNTVYLQMNSLKPEDTAVYYCNADGDTGRFDYWGQGTQVTVSS” the entry was “high polyreactivity”; with “QVQLVESGGGLVQAGGSLRLSCAASGFTLLTYVMGWYRQAPGKERELVAAISKSGSRTYYADSVKWRFTISRDNAKNTVYLQMNRLKPVDTPVYYCAADTSAYRYDYWGQGTQVTVSS”, “high polyreactivity”; with “QVQLVESGGGLVQAGGSLRLSCAASGFTLLVNAMGWYRQAPGKERELVAAITSGGRTNYADSVKGRFTISRDNAKNTVYLQMNSLKPEDTAVYYCARDWGRKPDDGQQAWYEYWGQGTQVTVSS”, “low polyreactivity”.
With “QVQLVESGGGLVQAGGSLRLSCAASGFTLRLYVMGWYRQAPGKERELVAAITSSGGSTYYADSVKGRFTISRDNAKNTVYLQMNSLKPEDTAVYYCAAVNRKSQLYGYWGQGTQVTVSS” the entry was “high polyreactivity”.
Regarding “QVQLVESGGGLVQAGGSLRLSCAASGFTLRSNVMGWSRQAPGKERELVAGISQSGGRTFYADSVKGRFTISRDNAKNTVYLQMNSLKPEDTAVYYCAARRYAVEGSKNYYWGQGTQVTVSS”, the “polyreactivity (PSR sort gate)” value is listed as “low polyreactivity”.
The entry for “QVQLVESGGGLVQAGGSLRLSCAASGFTLRTYAMGWYRQAPGKERELVAAITVSGGTYYADSVKGRFTISRDNAKYTVYLQMNSLKPEDTAVYYCTAKRFGTGFDYWGQGTQVTVSS” is “low polyreactivity”; for “QVQLVESGGGLVQAGGSLRLSCAASGFTLRYYAMGWSRQAPVKERELVATIKRSGASTYYADSVKGRFTISRDNSKNTVYLQMNSLKPEDTAVYYCNTATSRAYRYDYWGQGTQVTVSS” it is “high polyreactivity”; for “QVQLVESGGGLVQAGGSLRLSCAASGFTLSAYAMGLYRQAPGKERELVAGNSYTGGRTYYADSVKGRFTISRDNAKNTFYLQLISLKPEDTAVDYCAAALYSDVDAVATYGYYWGEGTQVTVSS” it is “low polyreactivity”.
With “QVQLVESGGGLVQAGGSLRLSCAASGFTLSDYAMGGYRKAAGTERELVAGISSGGSTNYADSVKGRFTISRDNAKNTVYLQMNSLKPEDTAVYYCATRGTFQSHIRSGYWGQGTQVTVSS” the entry was “high polyreactivity”; with “QVQLVESGGGLVQAGGSLRLSCAASGFTLSRYAMGWYRQAPGKERELVAAIRWSGGSTYYADSVKGRFTISRDNEKNTVYLQMNSLKPEDTAVYYCATRRSGYYSFYYWGQGTQVTGSS”, “high polyreactivity”; with “QVQLVESGGGLVQAGGSLRLSCAASGFTLTGNAMGWYRQAPGKERELVAAISRNGGSTFYADSVKGRFTISRDNAKNTVYLQMNSLKPEDTAVYYCNASRYRHSAYKYDSWGQGTQVTVSS”, “high polyreactivity”.
Regarding “QVQLVESGGGLVQAGGSLRLSCAASGFTLTSYAMGWYRQAPGKERELVAGISRGGITYYADSVKGRFTISRDNAKNTVYLQMNSLKPEDTAVYYCNARRTRRWPTTPEFTNFGYWGQGTQVTVSS”, the “polyreactivity (PSR sort gate)” value is recorded as “high polyreactivity”.
As to “QVQLVESGGGLVQAGGSLRLSCAASGFTLVKYVMGWYIQAPGKEREFVATIRRRGGNTYYADSVKGRFTISRDNAKNTVYLQMNSLKPEDTAVYYCAAKKRSDLRTGDMEYWGQGTQVTVSS”, the “polyreactivity (PSR sort gate)” value was “high polyreactivity”.
Turning to “QVQLVESGGGLVQAGGSLRLSCAASGFTLWGYAMGWYRQAPGKERELVATISWSGGGTNYADSVKGRFTISRDNAKNTVYLQMNSLKPEDTAVYYCAAGQGSRNQYYYWGQGTQVTVSS”, the “polyreactivity (PSR sort gate)” value is recorded as “high polyreactivity”.
With “QVQLVESGGGLVQAGGSLRLSCAASGFTLYAYVMGWYRQAPGKERDLVAAISRSGGSTYYADSVKGRFTISRDNAKNTVYLQMNSLKPEDTAVYYCAAQYKRYHRLYGYWGQGTQVTVSS” the entry was “high polyreactivity”; with “QVQLVESGGGLVQAGGSLRLSCAASGFTLYGYAMGWYRQAPGKERELVAGIRYSGGRTYYADSVKGRFTISRDNAKNTVYLEMNSLKPEDTAVYYCAAVFKLSSSFYYWGQGTQVTVSS”, “high polyreactivity”; with “QVQLVESGGGLVQAGGSLRLSCAASGFTLYPYAMGRYRKAPGKERELVAAISSSSGSTYYADSVKGRFTISRDNAKNTVYVQMNSLKPDDTAVYYCARDSGYYWYYRYGYWGQGTQVTVSS”, “high polyreactivity”.
On to “QVQLVESGGGLVQAGGSLRLSCAASGFTLYRYAMGWYRQAPAKERELVAANNSRGGSTYYADSVKGRFTISRDNAKITVYLQMISLKPDDTAVYYCNARRIRGGVRLTSPFYYWGQGTHVTVSS”, for which the “polyreactivity (PSR sort gate)” value is “high polyreactivity”.
As for “QVQLVESGGGLVQAGGSLRLSCAASGFTLYRYAMVWYRQAPGKERELVAAISRGSSTNYADSVKGRFTISRDNAKNTVYLQMNSLKPEDTAVYYCAARIVTLGSSRARSFTEYYWGQGTQVTVSS”, the “polyreactivity (PSR sort gate)” value is “high polyreactivity”.
The entry for “QVQLVESGGGLVQAGGSLRLSCAASGFTLYRYVMGWYRQAPGKERELVAAITWSGGSTYYADSVKGRFTISRDNAKNTVYLQMNSLKPEDTAVYYCAARLNVRGWGQGTQVTVSS” is “low polyreactivity”.
